According to article PMC6900184, “The Escherichia coli MarA protein regulates the ycgZ‐ymgABC operon to inhibit biofilm formation”:

Target: T1, MarA (Escherichia coli, UniProt P0ACH5 1-127)
T1 sequence: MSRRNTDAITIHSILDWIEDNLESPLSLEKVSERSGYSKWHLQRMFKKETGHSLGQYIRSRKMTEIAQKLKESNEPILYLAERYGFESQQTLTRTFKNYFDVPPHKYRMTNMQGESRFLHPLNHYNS
Test: EMSA; MarA 0.4, 1.2, 2.0 uM; EMSA: 20 mM Tris pH 7, 10 mM MgCl2, 100 mM EDTA (so in the source), 120 mM KCl; 5% polyacrylamide gel; temperature not stated
Details: protein: recombinant; tags: N-terminal His6 tag (pET28a) removed by thrombin; label: 5'-32P; 5' overhang 4 nt at both ends (EcoRI, HindIII)

B1: ycgZ.1m (dsDNA)
DNA 1: AATTCATATGCATTACGTCTAATTCGAAAAAATTAATTTATCATTCTGTACACATATTTCGTACAAGTTTGCTATTGTTACTTCACTTAACATTGATTAACATTTTTAACAGAGGCGTAGCATGA
DNA 2: AGCTTCATGCTACGCCTCTGTTAAAAATGTTAATCAATGTTAAGTGAAGTAACAATAGCAAACTTGTACGAAATATGTGTACAGAATGATAAATTAATTTTTTCGAATTAGACGTAATGCATATG
  binding result: no binding
